Patent US20250084398A1, “SYSTEMS FOR MODULATING DRUG METABOLISM BY CELLS, METHODS AND COMPOSITIONS THEREOF” (priority 2021, published 2025)

Key:
[1] = mice, cited from earlier work
GUS enzyme [2] = conditions: induced with 1 mM PNPG; cited from earlier work
[3] = replacement of carboxylate-contacting residue; cited from earlier work
HL29 (ATCC HTB-38) cells = assay: Viability of human colorectal adenocarcinoma cells incubated 48 hr with SN38G-treated bacterial lysates (XTT viability assay); format: cell-based
Method: Two BW25113 bacterial cultures were used: Vector bacteria expressing empty vector, and K125A bacteria containing the DOIN vector expressing GusR mutant repressor K125A. The cultures were incubated with PNPG to induce the GUS operon and were then incubated with the indicated SN-38G (SantaCruz, 212931A) concentrations, followed by lysis of the bacteria. HL29 (ATCC® HTB-38™) cells were maintained according to the manufacture instructions and incubated for 48 hr with the different bacterial extractions. The viability of the cells, incubated with the bacterial lysates, were determined using the XTT viability assay, in three independent biological repeats using four replicates.
GusR mutant K125A reduces the cytotoxicity of SN38 by inhibiting the metabolism of SN38G by the bacterial GUS, in an enzyme concentration-dependent manner. The study was performed as described in FIGURE, with the following modifications: The cultures were incubated with PNPG to induce the GUS operon, diluted as indicated, followed by incubation with 1 μM of SN-38G, and subsequently, lysis of the bacteria. The viability of the cells was determined as above.
Bacteria (WT and GUS-inhibitor producing bacteria) are grown and induced using PNPG as described above. Following induction, the bacteria are lysed, and extracts are incubated with SN-38G or PNPG. At the end of the incubation period, the PNPG-incubated bacterial extracts are taken to determine the activity of the GUS. In parallel, the SN-38G-incubated bacterial extracts are added to HT29 cell culture to determine cytotoxicity and CC50.
The rate of SN38G conversion to SN38 by the bacterial GUS in the samples is dependent on the reaction conditions (e.g., GUS enzyme activity, substrate concentration etc.), thus the resulting samples contained different concentrations of SN38. The samples were then incubated with HL29, human colorectal adenocarcinoma cell-line, and the viability of the cells was determined. Different concentrations of SN38G and bacteria were examined to evaluate their effect on the cytotoxicity of SN38. […]

[4] = tested on: E. coli K-12 BW25113 and E. coli K12 MG1655; assay: TFU assay: transduction efficiency of phage-based particles into bacterial hosts; format: cell-based; conditions: 1 hr incubation with lysate
Method: FIG. 6. Transduction of the modulatory component into different microbiome isolates Transductions (TFU/ml) of the DOIN vector into microbiome isolates was determined using the TFU assay, as described previously. Test bacteria culture (MG1655 (grey bars), BW25113 (white bars)) was grown to reach mid-exponential growth phase and incubated for 1 hr with a lysate of transducing particles (modified bacteriophages) containing the DOIN vector expressing GusR K125A_CRISPR, used as the modulatory component. Ten-fold serial dilutions were plated in duplicates on selective plates, which only bacteria that were transduced were able to grow on. Dashed grey horizontal line indicates the assay limit of detection. Data represent at least two independent experiments.
The lysate titer is determined using the transducing forming units (TFU) assay as previously described elsewhere.
The produced lysates are used to transduce each of the abovementioned bacterial hosts, and the transduction efficiencies for each strain is determined by the TFU assay.
More specifically, phage-based particle lysate was prepared as described above. The transduction efficiency of the particles against the indicated bacterial host above was determined using the TFU assay, as described previously, and presented in Table 2. The tail used for transduction is TC1 (TC1 as denoted by SEQ ID NO: 4).

GUS enzyme [5] = assay: GUS assay: GUS specific activity in bacterial cultures, PNPG substrate, absorbance at 410 nm; format: cell-based, E. coli
Method: The GUS activity is performed as previously described elsewhere, including all required assay controls. Briefly, bacterial cultures grow to reach OD600 of 0.6. Once reached the targeted growth phase, the culture is transduced with the GusR_K125A-expressing vector. One hour later, the bacterial cultures are added to the assay reaction, along with the substrate (PNPG) and the assay buffer. The assay reaction is incubated at 37° C. for 6 hours and the activity of the GUS operon is monitored by the presence of the hydrolysis product (PNP) by measuring the absorbance at 410 nm. The arbitrary units of the GUS operon specific activity are calculated as follows: […]
Inhibition of the GUS activity using the GusR_K125A mutant was next evaluated by the inventors. More specifically, two E. coli bacterial hosts were used: BW25113 and MG1655. A plasmid that expresses the mutant repressor K125A was introduced into each of these hosts (BW25113 K125A and MG1655 K125A). The activity of the GUS operon was determined in the absence (−) or presence (+) of the GUS operon inducer PNPG. The specific units were calculated as described above. As shown by FIG. 4, GUS activity is inhibited in the presence of the dominant negative mutant repressor K125A in two bacterial hosts.

CCc1c2c(nc3ccc(O)cc13)-c1cc3c(c(=O)n1C2)COC(=O)[C@]3(O)CC [SN38]
time to peak concentration of SN38 ([1]; after administration of Irinotecan 80 mg/kg): 2 h
peak concentration of SN38 ([1]; intestine, Irinotecan 80 mg/kg): around 1 μg/gr tissue weight

B1: K125A GusR (protein)
chain: MMDNMQTEAQPTRTRILNAAREIFSENGFHSASMKAICKSCAISPGTLYHHFISKEALIQAIILQDQERALARFREPIEGIHFVDYMVESIVSLTHEAFGQRALVVEIMAEGMRNPQVAAMLKNAHMTITEFVAQRMRDAQQKGEISPDINTAMTSRLLLDLTYGVLADIEAEDLAREASFAQGLRAMIGGILTAS
GUS activity of bacterial cells containing an expression plasmid (GUS enzyme [2]): no GUS activity
affinity to the GUS ligand [3]: significantly lower affinity
rescue of cells from the toxic effect of SN38 (FIG. 9) (HL29 (ATCC HTB-38) cells; SN38G 0.1 μM, BW25113 bacteria): completely rescued
cells rescued (viability, FIG. 9) (HL29 (ATCC HTB-38) cells; SN38G 1 μM, BW25113 bacteria, un-diluted): 60%
cells rescued from SN38 toxicity (FIG. 10) (HL29 (ATCC HTB-38) cells; SN38G 1 μM, bacteria 6-fold diluted): ~100%
Transduction into microbiome isolates (FIG. 6) [4]: successful transduction
GUS specific activity lower than in empty vector-expressing bacteria (GUS enzyme [5]; samples of the cytotoxicity study (BW25113)): around 10 fold
GUS activity (specific activity, FIG. 4) (GUS enzyme [5]; two bacterial hosts, BW25113 and MG1655, absence or presence of PNPG): inhibited

B2: Y164F GusR (protein)
chain: MMDNMQTEAQPTRTRILNAAREIFSENGFHSASMKAICKSCAISPGTLYHHFISKEALIQAIILQDQERALARFREPIEGIHFVDYMVESIVSLTHEAFGQRALVVEIMAEGMRNPQVAAMLKNKHMTITEFVAQRMRDAQQKGEISPDINTAMTSRLLLDLTFGVLADIEAEDLAREASFAQGLRAMIGGILTAS
reduction of GUS activity (FIG. 7) (GUS enzyme [5]; BW25113 bacteria): 34 fold
reduction of GUS activity (FIG. 7) (GUS enzyme [5]; MG1655 bacteria): ~1.5 fold
